Test results taken from patent publication US8609089B2, “Compositions of PD-1 antagonists and methods of use” (Amplimmune, Inc., priority 2008, dated 2013).

B1: B7-DC-Ig-APC: B7-DC-Ig conjugated with allophycocyanin (APC) (conjugate)
chain: LFTVTAPKEVYTVDVGSSVSLECDFDRRECTELEGIRASLQKVENDTSLQSERATLLEEQLPLGKALFHIPSVQVRDSGQYRCLVICGAAWDYKYLTVKVKASYMRIDTRILEVPGTGEVQLTCQARGYPLAEVSWQNVSVPANTSHIRTPEGLYQVTSVLRLKPQPSRNFSCMFWNAHMKELTSAIIDPLSRMEPKVPRTWEPRGPTIKPCPPCKCPAPNLLGGPSVFIFPPKIKDVLMISLSPIVTCVVVDVSEDDPDVQISWFVNNVEVHTAQTQTHREDYNSTLRVVSALPIQHQDWMSGKEFKCKVNNKDLPAPIERTISKPKGSVRAPQVYVLPPPEEEMTKKQVTLTCMVTDFMPEDIYVEWTNNGKTELNYKNTEPVLDSDGSYFMYSKLRVEKKNWVERNSYSCSVVHEGLHNHHTTKSFSRTPGK
B2: B7-DC-Ig: homodimer having 2 copies of SEQ ID NO: 10 linked by a disulfide linkage; mouse B7-DC ECD fused to Fc of mouse IgG2a (protein)
chain: B1 chain
modifications: homodimer via disulfide; Murine B7-DC-Ig fusion protein without signal sequence
notes: mouse B7-DC ECD fused to Fc of mouse IgG2a

How the values were obtained:
SP-1 cells = experiment: Metastatic prostate tumor model, survival; type: in vivo, B10.D2 mice; conditions: CTX 50 mg/kg Day 5, 12, 19; B7-DC-Ig 5 mg/kg Day 6, 13, 20; SP-1 cells intravenously
Protocol: SP-1 cells were isolated from mouse lungs that were metastasized from TRAMP prostate tumor cell injection. B10.D2 mice were first injected with 3×10^5 SP-1 cells via tail vein injection. On Day 5, 12 and 19, mice were injected with 50 mg/kg of CTX where was indicated. […] Here, “NT” refers to “not treated”.
The CTX mice received 3 doses of CTX, 50 mg/kg, on Day 5, 12 and 19.

[1] = test system: Treg and CD4+ T cells expressing high PD-1; experiment: T cell analysis in CT26 tumor-bearing mice (Treg, PD-1+/CD4+ T cells); type: in vivo, Balb/C mice
Protocol: On Day 9, mice were injected with 100 mg/kg of CTX, IP. […] Two naïve mice and 4 mice from other groups were removed from the study on Day 11 (2 days post CTX) and Day 16 (7 days post CTX) for T cell analysis. […] Mice implanted with tumor cells intended to have more PD-1+/CD4+ T cells in the draining LN compared with naïve mice.

AB1-HA tumor = conditions: CTX treatment at Day 9; van der Most et al. 2009; cited from earlier work
[2] = test system: CT26 colorectal tumor cells; experiment: CT26 subcutaneous established tumor model, tumor eradication; type: in vivo, Balb/C mice
Protocol: Mouse colorectal tumor cell line, CT26, was obtained from ATCC. A master cell bank at Passage 4 was generated following ATCC guidelines. […] One vial of tumor cells was thawed from the cryopreserved stocks and grown for two passages prior to inoculation.
CT26 cells were split at 1:5 dilution with 30 mL complete medium (RPMI+10% FBS, 2 mM L-Glu, and 1×P/S) for two days culture or at 1:10 dilution with 30 ml complete medium for 3 days culture.
CT26 cells were harvested by aspirating medium, rinsing the flask with 5 mL PBS, adding 5 mL trypsin, incubating at 37° C. for 2 min, and then neutralizing with 10 mL complete medium. After centrifuge at 600×g (˜1000 rpm) for 5 min, media was aspirated and the cell pellet was resuspended by pipetting with 10 ml plain RPMI. This wash step was repeated for three times.
Cell number and viability of the inoculated cells were analyzed by trypan blue dye staining with proper dilution (e.g. 1:5 dilution, 10 μL cells+40 μL trypan blue) and confirmed by NOVA cell count during the last wash step.
CT26 cells were diluted to 6.7×10^5 cells/mL for initial inoculation with plain RPMI and stored on ice. Typically each mouse was inoculated with 150 μL (1×10^5 cells).
CTX solution was reconstituted by 1×PBS to 4 mg/mL. […]
The same dose was given 2 time a week for 4 weeks, total 8 doses. […] Tumor volume was calculated as following: Tumor volume=π(Dshort)^2×(Dlong)/6=˜0.52×(Dshort)^2×(Dlong)
Mice were euthanized and taken off the study if the tumor volume reached 2000 mm^3 or if there were skin ulcers and infections at the tumor inoculation site.
On day 11 post tumor challenge, mice received a single dose of cyclophosphamide (100 mg/kg) and started treatment with anti-PD-1 antibody (250 ug, Clone G4, Hirano F. et al., 2005 Cancer Research) which was administered 3 times per week for four weeks.
On day 11 post tumor challenge, mice received 100 mg/kg of cyclophosphamide. Anti-CTLA4 (an anti-mouse CTLA4 from hamster hybridoma—ATCC deposit UC10-4F10-11) treatment was started 1 day later, on day 12. Mice were treated with 100 ug of anti-CTLA4, 2 doses per week, for 4 weeks.

[3] = test system: parent CHO cells that do not express PD-1; experiment: Flow cytometry binding to parent CHO cells; conditions: various concentrations
Protocol: (§1) Binding was analyzed by flow cytometry.

[4] = target: T1, CHO cell line constitutively expressing PD-1 (Homo sapiens, UniProt Q15116); experiment: Flow cytometry binding to CHO cells expressing PD-1; conditions: various concentrations
T1 construct: expressed in transfected cells; host or cells: CHO
T1 sequence (Q15116 25-288): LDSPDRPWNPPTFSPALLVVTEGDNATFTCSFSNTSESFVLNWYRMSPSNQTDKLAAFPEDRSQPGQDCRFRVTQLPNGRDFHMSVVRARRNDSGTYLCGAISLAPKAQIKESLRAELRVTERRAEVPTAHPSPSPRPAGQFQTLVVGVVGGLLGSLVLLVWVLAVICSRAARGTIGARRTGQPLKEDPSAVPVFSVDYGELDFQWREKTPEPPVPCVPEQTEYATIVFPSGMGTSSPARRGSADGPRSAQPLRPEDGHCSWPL
Protocol: as §1

PD-1 = target: T2, PD-1 (Homo sapiens, UniProt Q15116); experiment: Competition with labeled B7-H1-Ig for binding to PD-1 on CHO cells; conditions: unlabeled competitor at various concentrations, then B7-H1-Ig-APC; MFI
T2 construct: expressed in transfected cells; host or cells: CHO
T2 sequence (Q15116 25-288): as above
From the text: B7-H1-Ig was first conjugated with allophycocyanin (APC).

| Molecule | mice survived on Day 100 (SP-1 cells) [%] | Treg in the spleen vs vehicle-injected tumor-bearing mice ([1]; Day 11, 2 days post CTX 100 mg/kg IP) | cure rate (AB1-HA tumor) [%] | outcome of mice, CTX alone group ([2]; CTX 100 mg/kg day 10) | binding to untransfected CHO cells (median fluorescence intensity) [3] | binding to CHO.PD-1 cells (median fluorescence intensity) [4] | competition with B7-H1 for binding to PD-1 (PD-1) | CD4+ T cells expressing high PD-1 ([1]; Day 16, 7 days post CTX and 6 days post B7-DC-Ig 100 ug, draining LN) | tumor eradication ([2]; cyclophosphamide 100 mg/kg day 9, 30 μg B7-DC-Ig from Day 10, 2 doses per week, 8 doses) [%] | tumor eradication ([2]; cyclophosphamide 100 mg/kg day 9, 100 μg B7-DC-Ig from Day 10, 2 doses per week, 8 doses) [%] | mice that eradicated the tumors ([2]; cyclophosphamide 100 mg/kg day 9, 300 μg B7-DC-Ig from Day 10, 2 doses per week, 8 doses) [%] |
| --- | --- | --- | --- | --- | --- | --- | --- | --- | --- | --- | --- |
| O=P1(N(CCCl)CCCl)NCCCO1 (stereo not drawn) [CTX, cyclophosphamide, reference compound] | 17 | significantly lower | 75 | died as a result of tumor growth or were euthanized | – | – | – | – | – | – | – |
| B1 | – | – | – | – | not untransfected CHO cells | binds to CHO.PD-1 cells | – | – | – | – | – |
| B2 | 17 | – | – | – | – | – | competes with B7-H1 for binding to PD-1 | significantly lowered the CD4+ T cells expressing high PD-1 | 10 | 40 | 70 |
